Measured values: patent publication US20180346605A1 (Janssen / Centocor, published 2018)

B1: bsRSV-L[Q311R] (bispecific antibody, human IgG1, kappa)
heavy 1: not shown
light 1: EIVLTQSPGTLSLSPGERATFSCRSSHSIRSRRVAWYQHKPGQAPRLVIHGVSNRASGISDRFSGSGSGTDFTLTITRVEPEDFALYYCQVYGASSYTFGQGTKLERKRTVAAPSVFIFPPSDEQLKSGTASVVCLLNNFYPREAKVQWKVDNALQSGNSQESVTEQDSKDSTYSLSSTLTLSKADYEKHKVYACEVTHQGLSSPVTKSFNRGEC
heavy 2: not shown
light 2: not shown
notes: also called bispecific anti-RSV/gp120 with asymmetrical F405L Q311R
B2: bsRSV-L[TLQ] (bispecific antibody, human IgG1, kappa)
heavy 1: not shown
light 1: B1 light 1
heavy 2: not shown
light 2: not shown
notes: also called bispecific anti-RSV/gp120 with asymmetrical F405L/T307P/L309Q/Q311R

Assays:
[1] = biological target: T1, FcγRIIb soluble extracellular domain, C-terminal His-tag (UniProt P31994 43-217, limits assumed); assay: AlphaScreen competition at pH 7.2: unlabeled competitor antibody titrated against biotinylated wild-type IgG1 (legend: mAb RSV-L) on streptavidin donor beads for His-tagged FcγRIIb (14 ng/mL) on nickel acceptor beads
T1 construct: extracellular domain
T1 sequence (looked up): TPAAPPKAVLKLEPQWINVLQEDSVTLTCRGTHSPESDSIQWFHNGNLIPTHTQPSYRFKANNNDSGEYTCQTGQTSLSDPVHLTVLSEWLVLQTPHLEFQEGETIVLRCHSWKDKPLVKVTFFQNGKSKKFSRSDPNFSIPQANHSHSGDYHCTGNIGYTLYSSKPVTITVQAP

[2] = biological target: T2, FcγRI soluble extracellular domain, C-terminal His-tag (UniProt P12314 16-292, limits assumed); assay: AlphaScreen competition at pH 7.2: unlabeled competitor antibody titrated against biotinylated IgG1-L234A/L235A (legend: mAb RSV-L) on streptavidin donor beads for His-tagged FcγRI (200 ng/mL) on nickel acceptor beads
T2 construct: extracellular domain

[3] = biological target: T3, FcγRIIa soluble extracellular domain, C-terminal His-tag (UniProt P12318 34-217, limits assumed); assay: AlphaScreen competition at pH 7.2: unlabeled competitor antibody titrated against biotinylated wild-type IgG1 (legend: mAb RSV-L) on streptavidin donor beads for His-tagged FcγRIIa (10 ng/mL) on nickel acceptor beads
T3 construct: extracellular domain
T3 sequence (looked up): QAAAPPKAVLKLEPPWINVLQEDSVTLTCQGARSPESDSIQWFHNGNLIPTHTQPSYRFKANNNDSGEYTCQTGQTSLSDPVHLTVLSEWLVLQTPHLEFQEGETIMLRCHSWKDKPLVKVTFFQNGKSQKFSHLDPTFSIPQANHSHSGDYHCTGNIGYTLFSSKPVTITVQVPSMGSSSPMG

[4] = biological target: T4, FcγRIIIa soluble extracellular domain, C-terminal His-tag (UniProt P08637 17-208, limits assumed); assay: AlphaScreen competition at pH 7.2: unlabeled competitor antibody titrated against biotinylated wild-type IgG1 (legend: mAb RSV-L) on streptavidin donor beads for His-tagged FcγRIIIa (200 ng/mL) on nickel acceptor beads
T4 construct: extracellular domain

[5] = biological target: T5, His-tagged FcRn (UniProt P55899 24-297; P61769 21-119); assay: AlphaScreen competition at pH 6.0: unlabeled competitor antibody titrated against biotinylated wild-type IgG1 (legend: mAb RSV-L) on streptavidin donor beads for His-tagged FcRn on nickel acceptor beads
T5 construct: also called neonatal Fc receptor

Row | Binder | IC50 (read off the curve) [1] [nM] | IC50 (read off the curve) [2] [nM] | IC50 (read off the curve) [3] [nM] | IC50 (read off the curve) [4] [nM] | IC50 (read off the curve) [5] [nM]
1 | B1 | ~100 | ~4 | ~100 | ~80 | ~50
2 | B2 | – | ~4 | ~100 | ~80 | ~100
